Values of other authors in article PMC10560217.
Where two headings read alike, the source gives them in different places.

Columns and labels:
[1] = molecular target: dmIR (Drosophila melanogaster) (UniProt P09208)
[2] = molecular target: dmIR (Drosophila melanogaster) (UniProt P09208); remark: listed apart in the source
[3] = molecular target: hIR ECD (Homo sapiens) (UniProt P06213)
[4] = molecular target: dmIR (Drosophila melanogaster) (UniProt P09208); remark: listed apart in the source

dmIR (Drosophila melanogaster), sequence (P09208 44-1310): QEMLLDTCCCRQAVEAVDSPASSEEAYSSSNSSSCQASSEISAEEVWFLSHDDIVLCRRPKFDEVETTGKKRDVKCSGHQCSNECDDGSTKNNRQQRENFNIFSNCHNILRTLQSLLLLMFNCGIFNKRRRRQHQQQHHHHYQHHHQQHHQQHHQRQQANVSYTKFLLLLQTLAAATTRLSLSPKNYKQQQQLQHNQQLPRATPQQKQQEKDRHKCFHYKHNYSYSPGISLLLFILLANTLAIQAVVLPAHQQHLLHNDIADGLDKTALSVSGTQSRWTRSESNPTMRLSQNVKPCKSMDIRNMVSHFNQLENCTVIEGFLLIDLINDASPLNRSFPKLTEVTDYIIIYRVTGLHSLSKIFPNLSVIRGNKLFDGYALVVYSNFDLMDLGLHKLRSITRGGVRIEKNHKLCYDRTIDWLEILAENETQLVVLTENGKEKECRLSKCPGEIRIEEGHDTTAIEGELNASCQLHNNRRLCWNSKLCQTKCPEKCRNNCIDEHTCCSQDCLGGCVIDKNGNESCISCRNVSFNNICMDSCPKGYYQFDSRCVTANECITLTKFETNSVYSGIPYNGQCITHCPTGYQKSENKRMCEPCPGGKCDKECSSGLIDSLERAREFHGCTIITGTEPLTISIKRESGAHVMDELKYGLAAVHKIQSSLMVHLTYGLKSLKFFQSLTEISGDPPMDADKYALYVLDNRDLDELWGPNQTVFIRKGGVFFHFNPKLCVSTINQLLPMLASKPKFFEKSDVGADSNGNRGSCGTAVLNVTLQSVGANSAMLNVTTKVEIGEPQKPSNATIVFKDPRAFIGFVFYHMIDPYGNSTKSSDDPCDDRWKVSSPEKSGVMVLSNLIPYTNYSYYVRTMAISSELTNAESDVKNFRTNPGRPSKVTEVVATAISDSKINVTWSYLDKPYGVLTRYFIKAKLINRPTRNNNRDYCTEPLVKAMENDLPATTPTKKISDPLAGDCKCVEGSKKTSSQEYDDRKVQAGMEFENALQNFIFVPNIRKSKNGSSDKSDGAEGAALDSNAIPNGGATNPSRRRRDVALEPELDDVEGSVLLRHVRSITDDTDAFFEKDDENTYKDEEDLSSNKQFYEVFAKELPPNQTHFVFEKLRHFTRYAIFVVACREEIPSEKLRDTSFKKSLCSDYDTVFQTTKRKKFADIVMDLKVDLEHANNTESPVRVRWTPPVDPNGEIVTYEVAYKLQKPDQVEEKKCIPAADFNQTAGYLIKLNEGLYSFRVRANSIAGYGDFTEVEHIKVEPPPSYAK
DILP5 C4, sequence (Q7KUD5 23-50): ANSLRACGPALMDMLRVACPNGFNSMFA
DILP5 C4, sequence (Q7KUD5 87-108): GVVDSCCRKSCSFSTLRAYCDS
DILP5 DB, sequence (Q7KUD5 84-108): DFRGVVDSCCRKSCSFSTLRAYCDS
insulin, sequence (P01308 90-110): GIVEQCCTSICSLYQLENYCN

For DILP5 C4 (from UniProt Q7KUD5), the Kd [1] is given as 0.76 nM.

For hIGF-1 (from UniProt P05019), the Kd [2] is given as 5910 nM.

For insulin (from UniProt P01308), the Kd [3] is listed as 30 nM.

In the case of DILP5 DB (from UniProt Q7KUD5), the Kd [4] is given as 0.35 nM.
